According to article PMC3265607 (Journal of Molecular Biology, 2011):

T1: ceNXT1 (residues 2-137), His6, pETDuet-1 construct for structural studies (Caenorhabditis elegans, UniProt Q9U757 2-137, SeMet-labeled (selenomethionine))
T1 sequence (looked up): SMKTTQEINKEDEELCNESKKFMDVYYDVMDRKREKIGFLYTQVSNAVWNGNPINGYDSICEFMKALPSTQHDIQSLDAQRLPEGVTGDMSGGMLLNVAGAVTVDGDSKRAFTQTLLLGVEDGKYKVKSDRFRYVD


Key:
[1] = molecular target: ceNXT1, His6, pET28b construct for pull-down assays (Caenorhabditis elegans) (UniProt Q9U757); assay: SEC
[2] = molecular target: T1, ceNXT1 (residues 2-137), His6, …; assay: SEC

stoichiometry N [1]	stoichiometry N [2]	Molecule
1		ceNXF1(NTF2) (from UniProt Q9XVS7 352-539) (domain or fragment)
	1	ceNXF2(NTF2) (domain or fragment, Caenorhabditis elegans, UniProt Q9XVS8 202-405, looked up) FRNGYYGSDEVRTLVEEFIITYYKIYDGADGQQTRKQLLDAYDTNNSTFTHTVVCLWDPIKFVMYPDSESYRMYLRTSHNVLNQEYFAANRASRISHGAMDIVVALSRLPATIHLMDTFVVDVFLVSATLLGFTLHGTFRDGPSAIKPENTEEHDNYFTRTFMVAPRGEGKVAIVSDQLFISSMSKRRGDQYRMLVETATDIDQ
